Source: paper PMC8567202, “Phosphoinositide-binding activity of Smad2 is essential for its function in TGF-β signaling” (The Journal of Biological Chemistry, 2021)

B1: Smad2-W422A: W422A mutant of full-length Smad2; specific PI(4,5)P2 binding-compromised (protein)
chain: MSSILPFTPPVVKRLLGWKKSAGGSGGAGGGEQNGQEEKWCEKAVKSLVKKLKKTGRLDELEKAITTQNCNTKCVTIPSTCSEIWGLSTANTVDQWDTTGLYSFSEQTRSLDGRLQVSHRKGLPHVIYCRLWRWPDLHSHHELKAIENCEYAFNLKKDEVCVNPYHYQRVETPVLPPVLVPRHTEILTELPPLDDYTHSIPENTNFPAGIEPQSNYIPETPPPGYISEDGETSDQQLNQSMDTGSPAELSPTTLSPVNHSLDLQPVTYSEPAFWCSIAYYELNQRVGETFHASQPSLTVDGFTDPSNSERFCLGLLSNVNRNATVEMTRRHIGRGVRLYYIGGEVFAECLSDSAIFVQSPNCNQRYGWHPATVCKIPPGCNLKIFNNQEFAALLAQSVNQGFEAVYQLTRMCTIRMSFVKGAGAEYRRQTVTSTPCWIELHLNGPLQWLDKVLTQMGSPSVRCSSMS
modifications: left off: His6, N-terminal, state not stated
B2: Smad2-K420A: K420A mutant of full-length Smad2; predominantly TβRI binding-compromised (protein)
chain: MSSILPFTPPVVKRLLGWKKSAGGSGGAGGGEQNGQEEKWCEKAVKSLVKKLKKTGRLDELEKAITTQNCNTKCVTIPSTCSEIWGLSTANTVDQWDTTGLYSFSEQTRSLDGRLQVSHRKGLPHVIYCRLWRWPDLHSHHELKAIENCEYAFNLKKDEVCVNPYHYQRVETPVLPPVLVPRHTEILTELPPLDDYTHSIPENTNFPAGIEPQSNYIPETPPPGYISEDGETSDQQLNQSMDTGSPAELSPTTLSPVNHSLDLQPVTYSEPAFWCSIAYYELNQRVGETFHASQPSLTVDGFTDPSNSERFCLGLLSNVNRNATVEMTRRHIGRGVRLYYIGGEVFAECLSDSAIFVQSPNCNQRYGWHPATVCKIPPGCNLKIFNNQEFAALLAQSVNQGFEAVYQLTRMCTIRMSFVAGWGAEYRRQTVTSTPCWIELHLNGPLQWLDKVLTQMGSPSVRCSSMS
modifications: left off: His6, N-terminal, state not stated
B3: Smad2- R427A/R428A: double mutant of full-length Smad2; PI(4,5)P2 and TβRI binding-compromised (protein)
chain: MSSILPFTPPVVKRLLGWKKSAGGSGGAGGGEQNGQEEKWCEKAVKSLVKKLKKTGRLDELEKAITTQNCNTKCVTIPSTCSEIWGLSTANTVDQWDTTGLYSFSEQTRSLDGRLQVSHRKGLPHVIYCRLWRWPDLHSHHELKAIENCEYAFNLKKDEVCVNPYHYQRVETPVLPPVLVPRHTEILTELPPLDDYTHSIPENTNFPAGIEPQSNYIPETPPPGYISEDGETSDQQLNQSMDTGSPAELSPTTLSPVNHSLDLQPVTYSEPAFWCSIAYYELNQRVGETFHASQPSLTVDGFTDPSNSERFCLGLLSNVNRNATVEMTRRHIGRGVRLYYIGGEVFAECLSDSAIFVQSPNCNQRYGWHPATVCKIPPGCNLKIFNNQEFAALLAQSVNQGFEAVYQLTRMCTIRMSFVKGWGAEYAAQTVTSTPCWIELHLNGPLQWLDKVLTQMGSPSVRCSSMS
modifications: left off: His6, N-terminal, state not stated
B4: Smad2-E425K: charge-reversal mutant of full-length Smad2; PI(4,5)P2 and TβRI binding-enhanced (protein)
chain: MSSILPFTPPVVKRLLGWKKSAGGSGGAGGGEQNGQEEKWCEKAVKSLVKKLKKTGRLDELEKAITTQNCNTKCVTIPSTCSEIWGLSTANTVDQWDTTGLYSFSEQTRSLDGRLQVSHRKGLPHVIYCRLWRWPDLHSHHELKAIENCEYAFNLKKDEVCVNPYHYQRVETPVLPPVLVPRHTEILTELPPLDDYTHSIPENTNFPAGIEPQSNYIPETPPPGYISEDGETSDQQLNQSMDTGSPAELSPTTLSPVNHSLDLQPVTYSEPAFWCSIAYYELNQRVGETFHASQPSLTVDGFTDPSNSERFCLGLLSNVNRNATVEMTRRHIGRGVRLYYIGGEVFAECLSDSAIFVQSPNCNQRYGWHPATVCKIPPGCNLKIFNNQEFAALLAQSVNQGFEAVYQLTRMCTIRMSFVKGWGAKYRRQTVTSTPCWIELHLNGPLQWLDKVLTQMGSPSVRCSSMS
modifications: left off: His6, N-terminal, state not stated
B5: Smad2-Y426A: Y426A mutant of full-length Smad2; specific PI(4,5)P2 binding-compromised (protein)
chain: MSSILPFTPPVVKRLLGWKKSAGGSGGAGGGEQNGQEEKWCEKAVKSLVKKLKKTGRLDELEKAITTQNCNTKCVTIPSTCSEIWGLSTANTVDQWDTTGLYSFSEQTRSLDGRLQVSHRKGLPHVIYCRLWRWPDLHSHHELKAIENCEYAFNLKKDEVCVNPYHYQRVETPVLPPVLVPRHTEILTELPPLDDYTHSIPENTNFPAGIEPQSNYIPETPPPGYISEDGETSDQQLNQSMDTGSPAELSPTTLSPVNHSLDLQPVTYSEPAFWCSIAYYELNQRVGETFHASQPSLTVDGFTDPSNSERFCLGLLSNVNRNATVEMTRRHIGRGVRLYYIGGEVFAECLSDSAIFVQSPNCNQRYGWHPATVCKIPPGCNLKIFNNQEFAALLAQSVNQGFEAVYQLTRMCTIRMSFVKGWGAEARRQTVTSTPCWIELHLNGPLQWLDKVLTQMGSPSVRCSSMS
modifications: left off: His6, N-terminal, state not stated
B6: EGFP-Smad2 WT: mouse EGFP-Smad2 wild type transfected into HeLa cells (protein, UniProt Q62432 2-467, looked up)
Mothers against …: SSILPFTPPVVKRLLGWKKSAGGSGGAGGGEQNGQEEKWCEKAVKSLVKKLKKTGRLDELEKAITTQNCNTKCVTIPSTCSEIWGLSTANTVDQWDTTGLYSFSEQTRSLDGRLQVSHRKGLPHVIYCRLWRWPDLHSHHELKAIENCEYAFNLKKDEVCVNPYHYQRVETPVLPPVLVPRHTEILTELPPLDDYTHSIPENTNFPAGIEPQSNYIPETPPPGYISEDGETSDQQLNQSMDTGSPAELSPTTLSPVNHSLDLQPVTYSEPAFWCSIAYYELNQRVGETFHASQPSLTVDGFTDPSNSERFCLGLLSNVNRNATVEMTRRHIGRGVRLYYIGGEVFAECLSDSAIFVQSPNCNQRYGWHPATVCKIPPGCNLKIFNNQEFAALLAQSVNQGFEAVYQLTRMCTIRMSFVKGWGAEYRRQTVTSTPCWIELHLNGPLQWLDKVLTQMGSPSVRCSSMS
modifications: EGFP fusion
notes: mouse EGFP-Smad2 wild type transfected into HeLa cells

What follows are molecules tested on TβRI (assay: Dual color single-molecule tracking, TβRI and EGFP-Smad2). Conditions: HeLa cells with endogenous Smad2 suppressed, 10 ng/ml TGF-β.
Assay type: cell-based
Description: Figure 4 Quantitative imaging analyses of spatiotemporal dynamics of Smad2.A, TIRF images of mouse EGFP-Smad2-WT transfected into HeLa cells whose endogenous Smad2 is suppressed by siRNA. Images were taken before and 5 min after TGF-β stimulation (10 ng/ml) with and without PI(4,5)P2 depletion. A pseudo-coloring scheme was used with orange and blue representing the highest and the lowest intensity, respectively. B, kinetics of TGF-β stimulated (10 ng/ml) PM localization of EGFP-Smad2-WT (blue), -K420A (green), and -W422A (orange) transfected into HeLa cells the endogenous Smad2 of which was suppressed by siRNA. For EGFP-Smad2-WT, the effect of PI(4,5)P2 depletion (black) and TβRI inhibition by SB-431542 (10 μM for 36 h) (red) were measured. Data points indicate average ±S.D. (n = 10 cells). C, spatially resolved PM PI(4,5)P2 concentration ([PI(4,5)P2]) profiles calculated from two-channel cross-sectional images of HeLa cells (before and 5 min after 10 ng/ml TGF-β stimulation and after PI(4,5)P2 depletion). Each cell is a representative of more than ten cells analyzed. Spatially averaged [PI(4,5)P2] values for each cell type are shown. The z-axis scale indicates [PI(4,5)P2] in mol%. A pseudo-coloring scheme with red and blue representing the highest (1.5 mol%) and the lowest (0 mol%) concentration, respectively, is used to illustrate the spatial [PI(4,5)P2] heterogeneity. Scale bars indicate 10 μm. D, dual color single-molecule tracking of EGFP-PLCδ-PH and SNAP-TMR-labeled TβRI at the PM of HeLa cells. Time courses of the half-life of colocalization for SNAP-TMR-labeled TβRI and EGFP-PLCδ-PH after 10 ng/ml TGF-β stimulation were determined with (orange) and without (blue) PI(4,5)P2 depletion. Data points indicate average ±S.D. (n = 10 cells). E, time courses of the half-life of colocalization for SNAP-TMR-labeled TβRI and EGFP-Smad2 determined by dual color single-molecule tracking analysis. Colocalization of TβRI with EGFP-Smad2-WT (blue), -K420A (green), -W422A (orange), E425K (red), Y426A (cyan), and -R427A/R428A (black) transfected into HeLa cells whose endogenous Smad2 was suppressed by siRNA is shown. For EGFP-Smad2-WT, the effect of PI(4,5)P2 depletion (purple) was measured. Data points indicate average ±S.D. (n = 10 cells). […] TEXT PRINTED IN THE PICTURE: (C) PI(4,5)P2: [PI(4,5)P2] = 1.05 ± 0.20 mol% (HeLa unstimulated); [PI(4,5)P2] = 1.00 ± 0.40 mol% (HeLa 5 min after TGFβ); [PI(4,5)P2] = 0.16 ± 0.08 mol% (HeLa After PI(4,5)P2 depletion) DOUBTS OF THE COPYIST ABOUT THIS PICTURE: Panel C: the printed values are measured membrane concentrations of PI(4,5)P2 in HeLa cells under three conditions, not an activity or property of a compound; it is uncertain whether they count as a result for a substance
Single-molecule imaging was performed using a custom-built total internal reflection fluorescence microscope as described previously. HeLa cells were plated on the 8-well chambered coverglass (Lab-Tek, Thermo Fisher Scientific) at the density of 1 × 10^5 for 24 h, EGFP-Smad2 or mutants and SNAP-tagged TβRI were cotransfected into cells using the jetPRIME system (Polyplus-transfection) according to the manufacturer's protocols. The transfected HeLa cells were serum starved for 16 h and subsequently labeled with SNAP-Cell tetramethylrhodamine (TMR)-Star (New England Biolabs). Labeled cells were washed to remove the free dye, stimulated with 10 ng/ml TGF-β, the two protein molecules were simultaneously tracked and analyzed as described. The images were spatially corrected following the algorithm described previously ([39]). All particle tracking, data analysis, and image processing were carried out with in-house programs written in MATLAB. Colocalization analysis of two molecules was performed with a fixed threshold criterion (i.e., <400 nm) for colocalization ([39]). The same size of PM surface was analyzed for each data. […]

Row | Molecule | dynamic colocalization / dwell time with TβRI after TGF-β stimulation
1 | B1 | much reduced TGFβ-stimulated dynamic colocalization with TβRI
2 | B2 | little response to TGFβ stimulation
3 | B3 | low response to TGFβ stimulation
4 | B4 | stronger interaction with TβRI in terms of both amplitude and duration
5 | B5 | much reduced TGFβ-stimulated dynamic colocalization with TβRI

Same assay, conditions: HeLa cells with endogenous Smad2 suppressed, 10 ng/ml TGF-β, n = 10 cells

Row | Molecule | time of peak colocalization with TMR-SNAP-TβRI after TGF-β stimulation [min]
6 | B6 | 5
